Article PMC5479800, “Thioesterase YbgC affects motility by modulating c-di-GMP levels in Shewanella oneidensis” (Scientific Reports, 2017)
Positions count from the first letter of the chain named. In names and notes the source's numbering stands.

Tests used:
Experiment in all cases: purified protein
Format in all cases: biochemical, Shewanella oneidensis
Settings in all cases: 25 °C, 200 mM sodium phosphate, pH 7.5 in table title, pH 7.0 in methods
[1] = substrate: CCCC(=O)SCCNC(=O)CCNC(=O)[C@H](O)C(C)(C)COP(=O)(O)OP(=O)(O)OC[C@H]1O[C@@H](n2cnc3c(N)ncnc32)[C@H](O)[C@@H]1OP(=O)(O)O
[2] = substrate: CCCCCCCC(=O)SCCNC(=O)CCNC(=O)[C@H](O)C(C)(C)COP(=O)(O)OP(=O)(O)OC[C@H]1O[C@@H](n2cnc3c(N)ncnc32)[C@H](O)[C@@H]1OP(=O)(O)O
[3] = substrate: CC(=O)SCCNC(=O)CCNC(=O)[C@H](O)C(C)(C)COP(=O)(O)OP(=O)(O)OC[C@H]1O[C@@H](n2cnc3c(N)ncnc32)[C@H](O)[C@@H]1OP(=O)(O)O
[4] = substrate: CCC(=O)SCCNC(=O)CCNC(=O)[C@H](O)C(C)(C)COP(=O)(O)OP(=O)(O)OC[C@H]1O[C@@H](n2cnc3c(N)ncnc32)[C@H](O)[C@@H]1OP(=O)(O)O

B1: SoYbgC (S. oneidensis YbgC) (Shewanella oneidensis MR-1) (protein)
chain: MTFNWPISVYYEDTDAGGVVYHSNYLNFFERARTEWLKALGVSQTALLADDTAFVVKRAELDFKKAARFEQNLIVETKVIELKKASLVFHQRLVDHLGDCYCEGTVLVACVALSRMRPRAIPLNIVQEFDSAS
Km [1]: 17 ± 2 µM | kcat [1]: 1.3 ± 0.1 s⁻¹ | kcat/Km [1]: 76000 M⁻¹ s⁻¹ | Km [2]: 34 ± 4 µM | kcat [2]: 0.15 ± 0.01 s⁻¹ | kcat/Km [2]: 4400 M⁻¹ s⁻¹ | Km [3]: 3.5 ± 0.4 µM | kcat [3]: 8 ± 0.7 s⁻¹ | kcat/Km [3]: 2.3e+06 M⁻¹ s⁻¹ | Km [4]: 4.8 ± 0.6 µM | kcat [4]: 3.9 ± 5 s⁻¹ | kcat/Km [4]: 810000 M⁻¹ s⁻¹

B2: SoYbgC (S. oneidensis YbgC) (Shewanella oneidensis MR-1; D15N) (protein)
chain: B1 chain with D15N
Km [3]: 231 ± 37 µM
